Reference: US20250262210A1 (TRUSTEES OF COLUMBIA UNIVERSITY IN THE CITY OF NEW YORK, published 2025)

What was measured:
Experiment in all cases: IP/MS, LZTR1 wild type-FLAG, U87
ALPK2 = ALPK2 (human, UniProt Q86TB3 1-2170)
Method in brief: (§1)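 Extracted peptides in 3% acetonitrile/0.1% formic acid ran on a 50 cm C18 column into an Orbitrap Fusion, with MaxQuant identification and spectral counting.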

PPFIBP1 = biological target: T1, PPFIBP1 (human, UniProt Q86W92 1-1011, limits assumed)
T1 sequence (looked up): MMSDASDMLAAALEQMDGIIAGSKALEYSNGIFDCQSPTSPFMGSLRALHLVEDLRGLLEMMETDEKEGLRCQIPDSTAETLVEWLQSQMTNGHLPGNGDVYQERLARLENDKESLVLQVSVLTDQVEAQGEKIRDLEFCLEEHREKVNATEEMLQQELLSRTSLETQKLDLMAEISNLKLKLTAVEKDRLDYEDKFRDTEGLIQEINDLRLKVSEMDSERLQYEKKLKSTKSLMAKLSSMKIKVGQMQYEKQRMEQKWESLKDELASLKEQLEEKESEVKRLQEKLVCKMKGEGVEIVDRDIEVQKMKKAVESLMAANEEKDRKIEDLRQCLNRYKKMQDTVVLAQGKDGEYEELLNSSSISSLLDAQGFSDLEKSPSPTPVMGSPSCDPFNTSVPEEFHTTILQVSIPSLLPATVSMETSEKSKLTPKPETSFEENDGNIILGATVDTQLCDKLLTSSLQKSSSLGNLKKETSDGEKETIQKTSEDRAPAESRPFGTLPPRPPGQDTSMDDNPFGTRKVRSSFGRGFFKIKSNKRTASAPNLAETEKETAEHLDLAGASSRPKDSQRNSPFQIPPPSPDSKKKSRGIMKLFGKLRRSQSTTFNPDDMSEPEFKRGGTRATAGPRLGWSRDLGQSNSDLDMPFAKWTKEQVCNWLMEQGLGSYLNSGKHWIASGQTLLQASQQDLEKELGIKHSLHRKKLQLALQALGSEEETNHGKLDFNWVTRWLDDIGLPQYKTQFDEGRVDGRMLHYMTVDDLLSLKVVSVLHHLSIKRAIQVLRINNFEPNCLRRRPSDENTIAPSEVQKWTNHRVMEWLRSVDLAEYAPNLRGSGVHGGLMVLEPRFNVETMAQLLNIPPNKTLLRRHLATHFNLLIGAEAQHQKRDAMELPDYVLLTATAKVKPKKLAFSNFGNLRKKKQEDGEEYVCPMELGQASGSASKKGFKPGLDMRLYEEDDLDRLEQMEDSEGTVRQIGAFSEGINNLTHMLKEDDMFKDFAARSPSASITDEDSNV
Method in brief: as §1

VPS13A = VPS13A (human, UniProt Q96RL7 1-3174, limits assumed)
Sequence of VPS13A (Q96RL7 whole entry): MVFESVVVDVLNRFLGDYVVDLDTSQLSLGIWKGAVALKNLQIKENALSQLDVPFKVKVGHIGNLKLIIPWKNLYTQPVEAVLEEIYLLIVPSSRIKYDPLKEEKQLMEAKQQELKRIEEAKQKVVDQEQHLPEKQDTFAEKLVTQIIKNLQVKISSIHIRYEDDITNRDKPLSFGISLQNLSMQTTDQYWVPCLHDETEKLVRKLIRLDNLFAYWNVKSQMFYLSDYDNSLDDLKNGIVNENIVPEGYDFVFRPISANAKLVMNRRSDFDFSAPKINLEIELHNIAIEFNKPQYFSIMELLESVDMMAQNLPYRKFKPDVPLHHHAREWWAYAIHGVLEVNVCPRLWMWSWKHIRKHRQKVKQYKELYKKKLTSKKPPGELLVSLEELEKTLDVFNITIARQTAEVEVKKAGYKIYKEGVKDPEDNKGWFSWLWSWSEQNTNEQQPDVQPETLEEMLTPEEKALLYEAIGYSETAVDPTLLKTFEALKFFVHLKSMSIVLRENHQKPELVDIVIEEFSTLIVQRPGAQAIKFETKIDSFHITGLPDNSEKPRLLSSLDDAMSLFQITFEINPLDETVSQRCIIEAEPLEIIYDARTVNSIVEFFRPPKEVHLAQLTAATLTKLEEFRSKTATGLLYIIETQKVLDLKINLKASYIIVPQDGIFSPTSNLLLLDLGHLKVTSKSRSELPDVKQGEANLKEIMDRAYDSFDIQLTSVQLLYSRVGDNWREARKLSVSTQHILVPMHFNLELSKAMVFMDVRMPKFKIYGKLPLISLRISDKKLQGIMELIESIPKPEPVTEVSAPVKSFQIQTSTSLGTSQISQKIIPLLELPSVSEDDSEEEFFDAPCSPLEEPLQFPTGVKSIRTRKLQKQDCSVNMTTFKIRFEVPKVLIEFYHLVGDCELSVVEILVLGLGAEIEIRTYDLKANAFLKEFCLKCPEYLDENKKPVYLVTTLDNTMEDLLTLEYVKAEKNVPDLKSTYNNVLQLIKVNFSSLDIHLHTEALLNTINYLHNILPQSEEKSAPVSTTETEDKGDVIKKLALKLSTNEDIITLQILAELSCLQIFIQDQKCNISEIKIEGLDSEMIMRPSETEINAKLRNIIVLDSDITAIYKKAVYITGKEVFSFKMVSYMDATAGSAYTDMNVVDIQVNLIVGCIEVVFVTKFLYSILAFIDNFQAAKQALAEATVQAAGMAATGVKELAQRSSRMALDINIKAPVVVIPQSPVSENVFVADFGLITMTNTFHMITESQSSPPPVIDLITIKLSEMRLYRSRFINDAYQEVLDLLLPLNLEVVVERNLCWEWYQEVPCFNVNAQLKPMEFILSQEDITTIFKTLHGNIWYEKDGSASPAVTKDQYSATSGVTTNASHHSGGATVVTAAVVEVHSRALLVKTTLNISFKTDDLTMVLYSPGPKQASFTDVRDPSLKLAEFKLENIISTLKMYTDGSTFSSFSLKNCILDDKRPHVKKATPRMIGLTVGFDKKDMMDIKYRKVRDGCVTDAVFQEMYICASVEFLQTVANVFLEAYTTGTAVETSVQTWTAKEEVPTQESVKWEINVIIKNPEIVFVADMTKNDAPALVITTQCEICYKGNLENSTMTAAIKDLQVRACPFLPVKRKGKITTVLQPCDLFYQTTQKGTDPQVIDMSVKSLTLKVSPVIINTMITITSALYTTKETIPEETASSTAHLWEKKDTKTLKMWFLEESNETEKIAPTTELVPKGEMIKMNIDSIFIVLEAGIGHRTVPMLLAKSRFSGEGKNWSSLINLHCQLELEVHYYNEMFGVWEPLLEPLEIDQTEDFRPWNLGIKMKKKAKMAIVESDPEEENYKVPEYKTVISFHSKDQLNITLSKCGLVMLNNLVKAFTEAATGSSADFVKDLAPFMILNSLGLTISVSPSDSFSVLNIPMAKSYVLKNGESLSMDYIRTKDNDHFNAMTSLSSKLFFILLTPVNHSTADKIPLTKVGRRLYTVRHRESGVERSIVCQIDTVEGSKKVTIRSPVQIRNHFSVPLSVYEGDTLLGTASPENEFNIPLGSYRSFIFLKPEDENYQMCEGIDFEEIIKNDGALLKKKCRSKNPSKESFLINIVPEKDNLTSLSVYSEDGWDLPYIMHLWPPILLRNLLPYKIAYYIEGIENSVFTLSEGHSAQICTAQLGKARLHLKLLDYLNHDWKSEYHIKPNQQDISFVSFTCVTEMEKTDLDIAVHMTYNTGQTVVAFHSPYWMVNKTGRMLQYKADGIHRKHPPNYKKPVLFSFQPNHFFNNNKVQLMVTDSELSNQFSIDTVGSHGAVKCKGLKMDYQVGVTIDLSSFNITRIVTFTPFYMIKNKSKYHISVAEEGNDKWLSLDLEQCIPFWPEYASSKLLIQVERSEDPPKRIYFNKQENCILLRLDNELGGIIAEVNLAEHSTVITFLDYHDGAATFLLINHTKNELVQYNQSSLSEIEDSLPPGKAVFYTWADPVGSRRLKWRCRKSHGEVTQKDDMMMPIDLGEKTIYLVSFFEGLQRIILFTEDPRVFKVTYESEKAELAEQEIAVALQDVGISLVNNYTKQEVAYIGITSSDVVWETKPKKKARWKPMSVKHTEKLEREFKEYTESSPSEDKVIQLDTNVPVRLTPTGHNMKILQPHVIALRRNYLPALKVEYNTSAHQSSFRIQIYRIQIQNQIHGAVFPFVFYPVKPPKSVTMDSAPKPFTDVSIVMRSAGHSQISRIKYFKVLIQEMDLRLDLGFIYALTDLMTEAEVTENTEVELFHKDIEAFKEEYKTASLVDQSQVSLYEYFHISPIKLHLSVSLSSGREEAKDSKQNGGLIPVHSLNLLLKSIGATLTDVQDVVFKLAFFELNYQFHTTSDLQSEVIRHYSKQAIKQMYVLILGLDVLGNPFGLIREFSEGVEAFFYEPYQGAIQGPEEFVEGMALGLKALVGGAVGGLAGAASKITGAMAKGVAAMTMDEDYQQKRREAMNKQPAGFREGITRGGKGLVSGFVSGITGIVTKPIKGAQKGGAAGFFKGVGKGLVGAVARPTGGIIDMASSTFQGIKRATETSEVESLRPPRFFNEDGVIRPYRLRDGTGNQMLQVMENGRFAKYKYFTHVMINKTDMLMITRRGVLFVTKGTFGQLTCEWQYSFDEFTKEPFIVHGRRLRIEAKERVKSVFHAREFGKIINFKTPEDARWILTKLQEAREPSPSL
Method in brief: as §1

PTPN23 = PTPN23 (human, UniProt Q9H3S7 1-1636)
Sequence of PTPN23 (Q9H3S7 whole entry): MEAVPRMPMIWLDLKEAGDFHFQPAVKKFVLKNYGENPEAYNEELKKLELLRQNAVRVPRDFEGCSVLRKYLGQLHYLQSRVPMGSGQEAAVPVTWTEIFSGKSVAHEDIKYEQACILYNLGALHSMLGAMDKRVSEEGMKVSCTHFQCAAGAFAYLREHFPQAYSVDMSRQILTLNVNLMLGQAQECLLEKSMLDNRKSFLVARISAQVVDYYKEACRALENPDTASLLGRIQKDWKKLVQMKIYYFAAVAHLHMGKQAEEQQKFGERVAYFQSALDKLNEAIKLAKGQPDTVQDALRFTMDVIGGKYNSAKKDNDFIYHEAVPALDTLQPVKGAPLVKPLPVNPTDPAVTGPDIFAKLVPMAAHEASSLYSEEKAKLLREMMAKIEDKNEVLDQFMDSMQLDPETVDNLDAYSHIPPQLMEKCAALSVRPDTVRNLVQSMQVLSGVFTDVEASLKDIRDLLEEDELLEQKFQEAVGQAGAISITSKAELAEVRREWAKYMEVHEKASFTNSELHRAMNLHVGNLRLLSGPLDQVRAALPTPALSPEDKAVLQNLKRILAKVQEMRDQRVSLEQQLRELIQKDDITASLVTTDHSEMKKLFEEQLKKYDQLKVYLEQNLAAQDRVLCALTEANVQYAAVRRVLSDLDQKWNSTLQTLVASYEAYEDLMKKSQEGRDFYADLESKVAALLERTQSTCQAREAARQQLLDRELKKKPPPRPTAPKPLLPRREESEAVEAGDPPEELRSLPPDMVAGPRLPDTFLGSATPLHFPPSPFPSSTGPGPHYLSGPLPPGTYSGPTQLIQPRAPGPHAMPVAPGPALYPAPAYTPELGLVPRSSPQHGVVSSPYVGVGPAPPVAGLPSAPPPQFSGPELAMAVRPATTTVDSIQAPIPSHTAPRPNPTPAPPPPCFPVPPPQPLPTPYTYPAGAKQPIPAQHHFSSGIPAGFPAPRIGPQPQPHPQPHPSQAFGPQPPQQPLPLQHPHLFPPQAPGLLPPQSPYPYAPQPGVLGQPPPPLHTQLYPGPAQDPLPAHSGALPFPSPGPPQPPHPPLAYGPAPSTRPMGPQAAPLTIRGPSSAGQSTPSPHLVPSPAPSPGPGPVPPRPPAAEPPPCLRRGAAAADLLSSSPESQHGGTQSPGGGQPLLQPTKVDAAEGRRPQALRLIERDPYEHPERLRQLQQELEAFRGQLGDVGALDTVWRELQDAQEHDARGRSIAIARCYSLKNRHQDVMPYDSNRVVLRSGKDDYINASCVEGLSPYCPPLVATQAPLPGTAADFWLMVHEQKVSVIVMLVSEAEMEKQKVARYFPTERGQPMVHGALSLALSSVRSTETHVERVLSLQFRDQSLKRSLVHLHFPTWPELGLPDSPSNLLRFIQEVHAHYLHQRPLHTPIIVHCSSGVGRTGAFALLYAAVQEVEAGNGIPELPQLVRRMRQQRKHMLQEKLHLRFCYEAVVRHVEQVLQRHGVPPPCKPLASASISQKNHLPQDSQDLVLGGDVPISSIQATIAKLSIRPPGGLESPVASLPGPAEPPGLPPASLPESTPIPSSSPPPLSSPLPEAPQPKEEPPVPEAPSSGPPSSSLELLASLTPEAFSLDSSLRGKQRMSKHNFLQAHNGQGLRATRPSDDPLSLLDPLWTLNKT
Method in brief: as §1

Measured: binding result

B1: LZTR1-FLAG (other, human, UniProt Q8N653 1-840, looked up)
chain: MAGPGSTGGQIGAAALAGGARSKVAPSVDFDHSCSDSVEYLTLNFGPFETVHRWRRLPPCDEFVGARRSKHTVVAYKDAIYVFGGDNGKTMLNDLLRFDVKDCSWCRAFTTGTPPAPRYHHSAVVYGSSMFVFGGYTGDIYSNSNLKNKNDLFEYKFATGQWTEWKIEGRLPVARSAHGATVYSDKLWIFAGYDGNARLNDMWTIGLQDRELTCWEEVAQSGEIPPSCCNFPVAVCRDKMFVFSGQSGAKITNNLFQFEFKDKTWTRIPTEHLLRGSPPPPQRRYGHTMVAFDRHLYVFGGAADNTLPNELHCYDVDFQTWEVVQPSSDSEVGGAEVPERACASEEVPTLTYEERVGFKKSRDVFGLDFGTTSAKQPTQPASELPSGRLFHAAAVISDAMYIFGGTVDNNIRSGEMYRFQFSCYPKCTLHEDYGRLWESRQFCDVEFVLGEKEECVQGHVAIVTARSRWLRRKITQARERLAQKLEQEAAPVPREAPGVAAGGARPPLLHVAIREAEARPFEVLMQFLYTDKIKYPRKGHVEDVLLIMDVYKLALSFQLCRLEQLCRQYIEASVDLQNVLVVCESAARLQLSQLKEHCLNFVVKESHFNQVIMMKEFERLSSPLIVEIVRRKQQPPPRTPLDQPVDIGTSLIQDMKAYLEGAGAEFCDITLLLDGHPRPAHKAILAARSSYFEAMFRSFMPEDGQVNISIGEMVPSRQAFESMLRYIYYGEVNMPPEDSLYLFAAPYYYGFYNNRLQAYCKQNLEMNVTVQNVLQILEAADKTQALDMKRHCLHIIVHQFTKVSKLPTLRSLSQQLLLDIIDSLASHISDKQCAELGADI
notes: Expressed in HEK 293T, HeLa or U87 cells; used as cell lysate; also called LZTR1 wild type-FLAG; LZTR1 WT; not shown: FLAG tag at the C-terminus
binds: ALPK2 | PPFIBP1 | VPS13A | PTPN23
